In article PMC5267525, “Sec3 promotes the initial binary t-SNARE complex assembly and membrane fusion” (Nature Communications, 2017):

B1: His6-Sso2 (cytosolic domain, a.a. 1–270) [yeast] / GST-tagged Sec9 C-terminal SNARE domain (a.a. 414–651) [yeast] (parent)
chain 1: MSNANPYENNNPYAENYEMQEDLNNAPTGHSDGSDDFVAFMNKINSINANLSRYENIINQIDAQHKDLLTQVSEEQEMELRRSLDDYISQATDLQYQLKADIKDAQRDGLHDSNKQAQAENCRQKFLKLIQDYRIIDSNYKEESKEQAKRQYTIIQPEATDEEVEAAINDVNGQQIFSQALLNANRRGEAKTALAEVQARHQELLKLEKTMAELTQLFNDMEELVIEQQENVDVIDKNVEDAQQDVEQGVGHTNKAVKSARKARKNKIRC
chain 2: EEARQQQEEDEAVDEIKQEIKFTKQSSVASTRNTLKMAQDAERAGMNTLGMLGHQSEQLNNVEGNLDLMKVQNKVADEKVAELKKLNRSILAVHVSNPFNSKRRRREREEQLKNRKIEEKLMREQTSQQLSQSTQRIEGAMNANNNISEVRERYQRKNVLEKAKRYQFENDEEDDEMELEIDRNLDQIQQVSNRLKKMALTTGKELDSQQKRLNNIEESTDDLDINLHMNTNRLAGIR

Variants of: B1
Assay: GST pull-down time course (SDS-PAGE, Coomassie blue staining, band quantification)
Details: with GST-tagged Sec9 C-terminal SNARE domain (a.a. 414–651) [yeast]; time point 5 min; parent: 0; read off a plot

response [%]	Variant
34	chain 1 MSNANPYENNNPYAENYEMQEDLNNAPTGHSDGSDDFVAFMNKINSINANLSRYENIINQIDAQHKDLLTQVSEEQEMELRRSLDDYISQATDLQYQLKADIKDAQRDGLHDSNKQAQAENCRQKFLKLIQDYRIIDSNYKEESKEQAKRQYTIIQPEATDEEVEAAINGSSGGQIFSQALLNANRRGEAKTALAEVQARHQELLKLEKTMAELTQLFNDMEELVIEQQENVDVIDKNVEDAQQDVEQGVGHTNKAVKSARKARKNKIRC [chain 1 D170G V171S N172S Q174G]

Same assay, conditions: with GST-tagged Sec9 C-terminal SNARE domain (a.a. 414–651) [yeast]; time point 10 min; parent: 9; read off a plot

response [%]	Variant
67	chain 1 MSNANPYENNNPYAENYEMQEDLNNAPTGHSDGSDDFVAFMNKINSINANLSRYENIINQIDAQHKDLLTQVSEEQEMELRRSLDDYISQATDLQYQLKADIKDAQRDGLHDSNKQAQAENCRQKFLKLIQDYRIIDSNYKEESKEQAKRQYTIIQPEATDEEVEAAINGSSGGQIFSQALLNANRRGEAKTALAEVQARHQELLKLEKTMAELTQLFNDMEELVIEQQENVDVIDKNVEDAQQDVEQGVGHTNKAVKSARKARKNKIRC [chain 1 D170G V171S N172S Q174G]

Same assay, conditions: with GST-tagged Sec9 C-terminal SNARE domain (a.a. 414–651) [yeast]; time point 20 min; parent: 32; read off a plot

response [%]	Variant
79	chain 1 MSNANPYENNNPYAENYEMQEDLNNAPTGHSDGSDDFVAFMNKINSINANLSRYENIINQIDAQHKDLLTQVSEEQEMELRRSLDDYISQATDLQYQLKADIKDAQRDGLHDSNKQAQAENCRQKFLKLIQDYRIIDSNYKEESKEQAKRQYTIIQPEATDEEVEAAINGSSGGQIFSQALLNANRRGEAKTALAEVQARHQELLKLEKTMAELTQLFNDMEELVIEQQENVDVIDKNVEDAQQDVEQGVGHTNKAVKSARKARKNKIRC [chain 1 D170G V171S N172S Q174G]

Same assay, conditions: with GST-tagged Sec9 C-terminal SNARE domain (a.a. 414–651) [yeast]; time point 40 min; parent: 29; read off a plot

response [%]	Variant
100	chain 1 MSNANPYENNNPYAENYEMQEDLNNAPTGHSDGSDDFVAFMNKINSINANLSRYENIINQIDAQHKDLLTQVSEEQEMELRRSLDDYISQATDLQYQLKADIKDAQRDGLHDSNKQAQAENCRQKFLKLIQDYRIIDSNYKEESKEQAKRQYTIIQPEATDEEVEAAINGSSGGQIFSQALLNANRRGEAKTALAEVQARHQELLKLEKTMAELTQLFNDMEELVIEQQENVDVIDKNVEDAQQDVEQGVGHTNKAVKSARKARKNKIRC [chain 1 D170G V171S N172S Q174G]

Same assay, conditions: with GST-tagged Sec9 C-terminal SNARE domain (a.a. 414–651) [yeast]; time point 70 min; parent: 48; read off a plot

response [%]	Variant
92	chain 1 MSNANPYENNNPYAENYEMQEDLNNAPTGHSDGSDDFVAFMNKINSINANLSRYENIINQIDAQHKDLLTQVSEEQEMELRRSLDDYISQATDLQYQLKADIKDAQRDGLHDSNKQAQAENCRQKFLKLIQDYRIIDSNYKEESKEQAKRQYTIIQPEATDEEVEAAINGSSGGQIFSQALLNANRRGEAKTALAEVQARHQELLKLEKTMAELTQLFNDMEELVIEQQENVDVIDKNVEDAQQDVEQGVGHTNKAVKSARKARKNKIRC [chain 1 D170G V171S N172S Q174G]

Same assay, conditions: with GST-tagged Sec9 C-terminal SNARE domain (a.a. 414–651) [yeast]; time point 110 min; parent: 72; read off a plot

response [%]	Variant
96	chain 1 MSNANPYENNNPYAENYEMQEDLNNAPTGHSDGSDDFVAFMNKINSINANLSRYENIINQIDAQHKDLLTQVSEEQEMELRRSLDDYISQATDLQYQLKADIKDAQRDGLHDSNKQAQAENCRQKFLKLIQDYRIIDSNYKEESKEQAKRQYTIIQPEATDEEVEAAINGSSGGQIFSQALLNANRRGEAKTALAEVQARHQELLKLEKTMAELTQLFNDMEELVIEQQENVDVIDKNVEDAQQDVEQGVGHTNKAVKSARKARKNKIRC [chain 1 D170G V171S N172S Q174G]

Same assay, conditions: with GST-tagged Sec9 C-terminal SNARE domain (a.a. 414–651) [yeast]; time point 170 min; read off a plot

response [%]	Variant
96	chain 1 MSNANPYENNNPYAENYEMQEDLNNAPTGHSDGSDDFVAFMNKINSINANLSRYENIINQIDAQHKDLLTQVSEEQEMELRRSLDDYISQATDLQYQLKADIKDAQRDGLHDSNKQAQAENCRQKFLKLIQDYRIIDSNYKEESKEQAKRQYTIIQPEATDEEVEAAINGSSGGQIFSQALLNANRRGEAKTALAEVQARHQELLKLEKTMAELTQLFNDMEELVIEQQENVDVIDKNVEDAQQDVEQGVGHTNKAVKSARKARKNKIRC [chain 1 D170G V171S N172S Q174G]

Same assay, conditions: with GST-tagged Sec9 C-terminal SNARE domain (a.a. 414–651) [yeast]; time point 240 min; parent: 100; read off a plot

response [%]	Variant
100	chain 1 MSNANPYENNNPYAENYEMQEDLNNAPTGHSDGSDDFVAFMNKINSINANLSRYENIINQIDAQHKDLLTQVSEEQEMELRRSLDDYISQATDLQYQLKADIKDAQRDGLHDSNKQAQAENCRQKFLKLIQDYRIIDSNYKEESKEQAKRQYTIIQPEATDEEVEAAINGSSGGQIFSQALLNANRRGEAKTALAEVQARHQELLKLEKTMAELTQLFNDMEELVIEQQENVDVIDKNVEDAQQDVEQGVGHTNKAVKSARKARKNKIRC [chain 1 D170G V171S N172S Q174G]
